The values below come from publication PMC12043514 (Nature, 2024).

Data set [1] deals with SV40 large tumour antigen (LTag) helicase hexamer (Simian virus 40, UniProt P03070 1-708). Kind of data set: cryo-EM.
Data set [2] concerns the molecule itself. Kind of data set: cryo-EM structure.

B1: gap DNA substrate without free 3' ssDNA tail (mixed)
DNA 1: AGCTATGACCATGATTACGAATTGC
DNA 2: TTTTTCGGAGTCGTTTCGACTCCGATTTTTTTTTTTTTTTTTTTTTTTTTTTTTTTTTTTTTTTTTTTTTGCAATTCGTAATCATGGTCATAGCT
modifications: 3' terminal dideoxy-C ([23ddC]) on strand 1
Consider B1, for which the binding result in data set [1] is “no binding”.

B2: simian virus 40 large tumour antigen (LTag) helicase (enzyme)
chain: MDKVLNREESLQLMDLLGLERSAWGNIPLMRKAYLKKCKEFHPDKGGDEEKMKKMNTLYKKMEDGVKYAHQPDFGGFWDATEIPTYGTDEWEQWWNAFNEENLFCSEEMPSSDDEATADSQHSTPPKKKRKVEDPKDFPSELLSFLSHAVFSNRTLACFAIYTTKEKAALLYKKIMEKYSVTFISRHNSYNHNILFFLTPHRHRVSAINNYAQKLCTFSFLICKGVNKEYLMYSALTRDPFSVIEESLPGGLKEHDFNPEEAEETKQVSWKLVTEYAMETKCDDVLLLLGMYLEFQYSFEMCLKCIKKEQPSHYKYHEKHYANAAIFADSKNQKTICQQAVDTVLAKKRVDSLQLTREQMLTNRFNDLLDRMDIMFGSTGSADIEEWMAGVAWLHCLLPKMDSVVYDFLKCMVYNIPKKRYWLFKGPIDSGKTTLAAALLELCGGKALNVNLPLDRLNFELGVAIDQFLVVFEDVKGTGGESRDLPSGQGINNLDNLRDYLDGSVKVNLEKKHLNKRTQIFPPGIVTMNEYSVPKTLQARFVKQIDFRPKDYLKHCLERSEFLLEKRIIQSGIALLLMLIWYRPVAEFAQSIQSRIVEWKERLDKEFSLSVYQKMKFNVAMGIGVLDWLRNSDDDDEDSQENADKNEDGGEKNMEDSGHETGIDSQSQGSFQAPQSSQSVHDHNQPYHICRGFTCFKKPPTPPPEPET
As for B2, the stoichiometry N (usually a count of units in the complex or per binding partner) in data set [2] was 6.
